# Assays:
# [1] = biological target: revertant virus (AD169 CMV with the pentameric gH complex restored); experiment: antibody-titration EIA, coated revertant virions
# [2] = biological target: revertant virus (AD169 CMV with the pentameric gH complex restored); experiment: cell-based or functional assay
substance,measurement,setting,value
"human polyclonal CMV hyperimmune IgG (HIG, CytoGam) (antibody)",EC50,[1],2 µg/mL
same,EC50 neutralizing (ARPE-19 cells),[2],1 µg/mL

# Reference: US20160130327A1
